Measurements published in paper doi:10.1101/545814 (bioRxiv, 2019).
Positions count from the first letter of the chain named. Names and notes keep the numbering of the source.

T1: MBP-Epe1 (wild-type, recombinant, full length) (S. pombe, UniProt O94603 1-948)
T1 sequence: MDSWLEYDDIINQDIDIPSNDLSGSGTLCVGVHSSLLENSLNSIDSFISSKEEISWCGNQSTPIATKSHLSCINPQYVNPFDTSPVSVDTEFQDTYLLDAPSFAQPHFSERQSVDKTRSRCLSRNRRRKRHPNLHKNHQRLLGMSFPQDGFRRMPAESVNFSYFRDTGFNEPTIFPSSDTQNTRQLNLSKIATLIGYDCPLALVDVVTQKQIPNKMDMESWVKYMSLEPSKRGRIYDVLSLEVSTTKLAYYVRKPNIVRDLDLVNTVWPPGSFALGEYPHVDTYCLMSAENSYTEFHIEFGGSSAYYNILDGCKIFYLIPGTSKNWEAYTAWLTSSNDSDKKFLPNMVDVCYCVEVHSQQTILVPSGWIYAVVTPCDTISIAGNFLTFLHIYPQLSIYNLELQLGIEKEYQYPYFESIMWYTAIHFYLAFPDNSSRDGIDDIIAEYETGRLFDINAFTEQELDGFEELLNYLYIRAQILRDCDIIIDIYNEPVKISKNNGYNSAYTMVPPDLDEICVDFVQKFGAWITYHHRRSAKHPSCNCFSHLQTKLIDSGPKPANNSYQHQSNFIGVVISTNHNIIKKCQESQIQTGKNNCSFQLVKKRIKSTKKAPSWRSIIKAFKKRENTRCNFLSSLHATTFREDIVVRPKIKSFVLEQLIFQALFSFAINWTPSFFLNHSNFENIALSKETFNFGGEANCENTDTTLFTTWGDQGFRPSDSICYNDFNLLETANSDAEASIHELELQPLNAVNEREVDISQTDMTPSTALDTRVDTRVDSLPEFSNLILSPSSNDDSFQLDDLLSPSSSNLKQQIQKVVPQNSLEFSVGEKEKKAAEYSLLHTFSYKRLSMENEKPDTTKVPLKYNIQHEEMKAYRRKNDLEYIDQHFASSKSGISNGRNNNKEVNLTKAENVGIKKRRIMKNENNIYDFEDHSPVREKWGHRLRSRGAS

T2: MBP-Epe1^434-948 (S. pombe, UniProt O94603 434-948)
T2 sequence: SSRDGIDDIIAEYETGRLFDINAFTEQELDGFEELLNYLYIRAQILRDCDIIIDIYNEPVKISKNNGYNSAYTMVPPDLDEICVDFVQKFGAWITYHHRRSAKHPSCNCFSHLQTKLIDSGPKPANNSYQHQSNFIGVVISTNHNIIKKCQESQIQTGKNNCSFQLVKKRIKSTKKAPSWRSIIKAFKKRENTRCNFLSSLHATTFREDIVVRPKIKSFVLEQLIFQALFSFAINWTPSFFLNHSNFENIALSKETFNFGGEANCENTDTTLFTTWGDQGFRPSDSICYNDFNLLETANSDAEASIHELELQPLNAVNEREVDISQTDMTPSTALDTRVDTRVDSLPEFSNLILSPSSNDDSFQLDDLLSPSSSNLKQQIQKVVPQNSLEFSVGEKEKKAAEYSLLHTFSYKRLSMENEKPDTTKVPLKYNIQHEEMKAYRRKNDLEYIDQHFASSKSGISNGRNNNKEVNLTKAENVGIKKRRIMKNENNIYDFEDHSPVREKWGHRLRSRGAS

B1: MBP-Epe1^434-600 (domain or fragment)
chain: SSRDGIDDIIAEYETGRLFDINAFTEQELDGFEELLNYLYIRAQILRDCDIIIDIYNEPVKISKNNGYNSAYTMVPPDLDEICVDFVQKFGAWITYHHRRSAKHPSCNCFSHLQTKLIDSGPKPANNSYQHQSNFIGVVISTNHNIIKKCQESQIQTGKNNCSFQLV
B2: 3X-FLAG Swi6^HP1 W104A (natural protein)
chain: MKKGGVRSYRRSSTSKRSVIDDDSEPELPSMTKEAIASHKADSGSSDNEVESDHESKSSSKKLKENAKEEEGGEEEEEDEYVVEKVLKHRMARKGGGYEYLLKAEGYDDPSDNTWSSEADCSGCKQLIEAYWNEHGGRPEPSKRKRTARPKKPEAKEPSPKSRKTDEDKHDKDSNEKIEDVNEKTIKFADKSQEEFNENGPPSGQPNGHIESDNESKSPSQKESNESEDIQIAETPSNVTPKKKPSPEVPKLPDNRELTVKQVENYDSWEDLVSSIDTIERKDDGTLEIYLTWKNGAISHHPSTITNKKCPQKMLQFYESHLTFRENE
B3: 3X FLAG-Swi6^HP1 (recombinant, E. coli) (natural protein)
chain: B2 chain with A104W
B4: 3X FLAG-Swi6^HP1 purified from fission yeast cells (natural protein)
chain: B2 chain with A104W

Experiments:
Test in all cases: pull-down
[1] = target: B3
[2] = target: T1, MBP-Epe1 (wild-type, recombinant, full …)
MBP-Epe1^434-948 = target: T2, MBP-Epe1^434-948

Row | binding result [1] | binding result [2] | binding result (MBP-Epe1^434-948) | Binder
1 | binds |  |  | B1
2 |  | binds |  | B2
3 |  | binds | binds | B3
4 |  | binds |  | B4
